Values of other authors as cited in PMC6767322.

Biological target: IL-2Rβ/γc (Homo sapiens) (UniProt P14784)
Sequence of UniProt P14784 (P14784 27-240, chain 1 of 2): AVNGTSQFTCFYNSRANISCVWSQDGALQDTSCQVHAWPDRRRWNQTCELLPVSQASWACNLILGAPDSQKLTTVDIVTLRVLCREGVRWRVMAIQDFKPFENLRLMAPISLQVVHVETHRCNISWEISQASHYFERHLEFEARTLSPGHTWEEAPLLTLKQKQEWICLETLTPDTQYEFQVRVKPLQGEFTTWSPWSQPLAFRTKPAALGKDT
Sequence of UniProt P14784 (P31785 23-262, chain 2 of 2, further chain): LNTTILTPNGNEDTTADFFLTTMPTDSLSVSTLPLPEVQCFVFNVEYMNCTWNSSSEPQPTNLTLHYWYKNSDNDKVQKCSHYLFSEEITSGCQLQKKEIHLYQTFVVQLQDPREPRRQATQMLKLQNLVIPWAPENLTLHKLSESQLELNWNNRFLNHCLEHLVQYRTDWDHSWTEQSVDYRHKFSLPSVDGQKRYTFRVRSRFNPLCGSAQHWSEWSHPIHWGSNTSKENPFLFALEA

Q: With IL-15 (from UniProt P40933) as the substance, how does the Kd read?
A: Its Kd is 30 nM.
